These results are taken from publication doi:10.1101/2022.10.09.511515, “DNA segment capture by Smc5/6 holo-complexes” (bioRxiv, 2022).

In this assay the target is T1, Smc5(G1054C) (S. cerevisiae, UniProt Q08204 1-1093, G1054C).
T1 construct: Smc5, S. cerevisiae; subunit of the Smc5/6 hexamer; Stood in the assay as a subunit of the purified Smc5/6 hexamer (Smc5, Smc6, Nse1-4); also called Smc5 with the engineered cysteine of the Smc5/Nse4 interface
T1 sequence (looked up): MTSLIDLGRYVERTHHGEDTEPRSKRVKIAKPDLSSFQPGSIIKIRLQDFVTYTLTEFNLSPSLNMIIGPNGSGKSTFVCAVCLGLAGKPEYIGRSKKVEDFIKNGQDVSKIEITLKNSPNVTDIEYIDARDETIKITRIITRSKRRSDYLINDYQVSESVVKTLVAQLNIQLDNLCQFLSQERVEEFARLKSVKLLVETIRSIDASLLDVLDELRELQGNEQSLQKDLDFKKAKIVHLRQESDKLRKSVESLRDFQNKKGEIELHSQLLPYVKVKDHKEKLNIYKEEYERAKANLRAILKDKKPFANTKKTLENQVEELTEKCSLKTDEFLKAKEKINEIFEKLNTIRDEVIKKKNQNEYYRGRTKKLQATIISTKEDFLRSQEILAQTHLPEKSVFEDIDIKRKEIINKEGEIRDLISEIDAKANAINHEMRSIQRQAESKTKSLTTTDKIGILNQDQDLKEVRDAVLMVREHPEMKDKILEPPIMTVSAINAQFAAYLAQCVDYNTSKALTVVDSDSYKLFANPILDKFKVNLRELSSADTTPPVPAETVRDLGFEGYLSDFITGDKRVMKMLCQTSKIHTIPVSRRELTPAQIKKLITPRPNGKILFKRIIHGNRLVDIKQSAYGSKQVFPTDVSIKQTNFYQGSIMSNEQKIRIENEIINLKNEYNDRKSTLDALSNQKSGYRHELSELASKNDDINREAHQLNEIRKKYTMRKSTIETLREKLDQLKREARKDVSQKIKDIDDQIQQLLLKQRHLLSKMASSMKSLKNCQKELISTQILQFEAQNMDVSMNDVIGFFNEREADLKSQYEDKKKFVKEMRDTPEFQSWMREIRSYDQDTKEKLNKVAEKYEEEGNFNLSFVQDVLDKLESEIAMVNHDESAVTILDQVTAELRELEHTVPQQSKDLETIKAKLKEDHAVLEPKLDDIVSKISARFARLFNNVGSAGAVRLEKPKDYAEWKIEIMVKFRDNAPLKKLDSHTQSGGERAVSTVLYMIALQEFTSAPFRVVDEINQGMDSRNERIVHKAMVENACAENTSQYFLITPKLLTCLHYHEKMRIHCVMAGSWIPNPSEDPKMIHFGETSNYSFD
Description: cross-linking; as a1 with the Nse5/6 dimer added in 1.25 x molar excess (0.625 uM) to the hexamer; SDS-PAGE, Coomassie. As to conditions: both partners purified.

B1: Nse5/6 dimer (complex, S. cerevisiae)
chain 1: MDGALINSVLYVSPRNGAHYFVELTEKHLLAFEMLNSMCLLENYDHVLLFLECQFGKSHNLAVIPFDIILVLFTLSTLSEYYKEPILRANDPYNTSRETLSRRALKLLQKYLAILKEFDSEQYNLYDLELLRCQFFLAIDTLTPKKQKWGFDRFRRTKSESGVTYRQNASVDPELDQAKTFKNPYRSYISCLEQRNTILGNRLLNLKLNEPGEFINMILWTLSNSLQESTPLFLSSHEIWMPLLEILIDLFSCRQDYFIQHEVAQNVSKSLFVQRLSESPLAVFFESLNTRNFANRFSEYVFLNCDYKLPSDNYATPVHPVYNGENTIVDTYIPTIKCSPLYKSQKSLALRRKLIGSCFKLLLRVPDGHRLITPRIVADDVIQGISRTLASFNDILQFKKFFMTENLSQESYFIPLLAEGTLSEILKDTQECVVILTLVENLSDGVSFCNEVIGLVKSKCFAFTEQCSQASYEEAVLNIEKCDVCLLVLLRYLLHLIGTEAILDAKEQLEMLHAIEKNDSGRRQWAKALNLGNDPPLLYPIVSQMFGVHDKSVIIE
chain 2: MGSVNSSPNEEFETVPDSQISGFDSPLIPTSVGSYFRDDDDDEKVHPNFISDPENDSLNSDEEFSSLENSDLNLSGAKAESGDDFDPILKRTIISKRKAPSNNEDEEIVKTPRKLVNYVPLKIFNLGDSFDDTITTTVAKLQDLKKEILDSPRSNKSIVITSNTVAKSELQKSIKFSGSIPEIYLDVVTKETISDKYKDWHFISKNCHYEQLMDLEMKDTAYSFLFGSSRSQGKVPEFVHLKCPSITNLLVLFGVNQEKCNSLKINYEKKENSRYDNLCTIFPVNKMLKFLMYFYSDDDNDDVREFFLKAFICLILDRKVFNAMESDHRLCFKVLELFNEAHFINSYFEIVDKNDFFLHYRLLQIFPHLQSALLRRRFSEKQGRTETIQQNIIKEFNEFFDCKNYKNLLYFILTMYGSKFIPFGPKCQVTEYFKDCILDISNETTNDVEISILKGILNLFSKIR
notes: Nse5, S. cerevisiae; a native cysteine of it cross-links to Smc5(G1054C); Nse6, S. cerevisiae; also called Nse5/6 loader; loader Nse5/6
For B1, the binding result is “binds”.
